Measurements as given in US20170232076A1.

Columns and labels:
[1] = biological target: cation-independent mannose-6-phosphate receptor (CI-M6PR) on cells overexpressing CI-M6PR; assay: cellular uptake assay on cells overexpressing CI-M6PR, intracellular Naglu activity read-out
Target sequence in this assay (P11717 41-2491): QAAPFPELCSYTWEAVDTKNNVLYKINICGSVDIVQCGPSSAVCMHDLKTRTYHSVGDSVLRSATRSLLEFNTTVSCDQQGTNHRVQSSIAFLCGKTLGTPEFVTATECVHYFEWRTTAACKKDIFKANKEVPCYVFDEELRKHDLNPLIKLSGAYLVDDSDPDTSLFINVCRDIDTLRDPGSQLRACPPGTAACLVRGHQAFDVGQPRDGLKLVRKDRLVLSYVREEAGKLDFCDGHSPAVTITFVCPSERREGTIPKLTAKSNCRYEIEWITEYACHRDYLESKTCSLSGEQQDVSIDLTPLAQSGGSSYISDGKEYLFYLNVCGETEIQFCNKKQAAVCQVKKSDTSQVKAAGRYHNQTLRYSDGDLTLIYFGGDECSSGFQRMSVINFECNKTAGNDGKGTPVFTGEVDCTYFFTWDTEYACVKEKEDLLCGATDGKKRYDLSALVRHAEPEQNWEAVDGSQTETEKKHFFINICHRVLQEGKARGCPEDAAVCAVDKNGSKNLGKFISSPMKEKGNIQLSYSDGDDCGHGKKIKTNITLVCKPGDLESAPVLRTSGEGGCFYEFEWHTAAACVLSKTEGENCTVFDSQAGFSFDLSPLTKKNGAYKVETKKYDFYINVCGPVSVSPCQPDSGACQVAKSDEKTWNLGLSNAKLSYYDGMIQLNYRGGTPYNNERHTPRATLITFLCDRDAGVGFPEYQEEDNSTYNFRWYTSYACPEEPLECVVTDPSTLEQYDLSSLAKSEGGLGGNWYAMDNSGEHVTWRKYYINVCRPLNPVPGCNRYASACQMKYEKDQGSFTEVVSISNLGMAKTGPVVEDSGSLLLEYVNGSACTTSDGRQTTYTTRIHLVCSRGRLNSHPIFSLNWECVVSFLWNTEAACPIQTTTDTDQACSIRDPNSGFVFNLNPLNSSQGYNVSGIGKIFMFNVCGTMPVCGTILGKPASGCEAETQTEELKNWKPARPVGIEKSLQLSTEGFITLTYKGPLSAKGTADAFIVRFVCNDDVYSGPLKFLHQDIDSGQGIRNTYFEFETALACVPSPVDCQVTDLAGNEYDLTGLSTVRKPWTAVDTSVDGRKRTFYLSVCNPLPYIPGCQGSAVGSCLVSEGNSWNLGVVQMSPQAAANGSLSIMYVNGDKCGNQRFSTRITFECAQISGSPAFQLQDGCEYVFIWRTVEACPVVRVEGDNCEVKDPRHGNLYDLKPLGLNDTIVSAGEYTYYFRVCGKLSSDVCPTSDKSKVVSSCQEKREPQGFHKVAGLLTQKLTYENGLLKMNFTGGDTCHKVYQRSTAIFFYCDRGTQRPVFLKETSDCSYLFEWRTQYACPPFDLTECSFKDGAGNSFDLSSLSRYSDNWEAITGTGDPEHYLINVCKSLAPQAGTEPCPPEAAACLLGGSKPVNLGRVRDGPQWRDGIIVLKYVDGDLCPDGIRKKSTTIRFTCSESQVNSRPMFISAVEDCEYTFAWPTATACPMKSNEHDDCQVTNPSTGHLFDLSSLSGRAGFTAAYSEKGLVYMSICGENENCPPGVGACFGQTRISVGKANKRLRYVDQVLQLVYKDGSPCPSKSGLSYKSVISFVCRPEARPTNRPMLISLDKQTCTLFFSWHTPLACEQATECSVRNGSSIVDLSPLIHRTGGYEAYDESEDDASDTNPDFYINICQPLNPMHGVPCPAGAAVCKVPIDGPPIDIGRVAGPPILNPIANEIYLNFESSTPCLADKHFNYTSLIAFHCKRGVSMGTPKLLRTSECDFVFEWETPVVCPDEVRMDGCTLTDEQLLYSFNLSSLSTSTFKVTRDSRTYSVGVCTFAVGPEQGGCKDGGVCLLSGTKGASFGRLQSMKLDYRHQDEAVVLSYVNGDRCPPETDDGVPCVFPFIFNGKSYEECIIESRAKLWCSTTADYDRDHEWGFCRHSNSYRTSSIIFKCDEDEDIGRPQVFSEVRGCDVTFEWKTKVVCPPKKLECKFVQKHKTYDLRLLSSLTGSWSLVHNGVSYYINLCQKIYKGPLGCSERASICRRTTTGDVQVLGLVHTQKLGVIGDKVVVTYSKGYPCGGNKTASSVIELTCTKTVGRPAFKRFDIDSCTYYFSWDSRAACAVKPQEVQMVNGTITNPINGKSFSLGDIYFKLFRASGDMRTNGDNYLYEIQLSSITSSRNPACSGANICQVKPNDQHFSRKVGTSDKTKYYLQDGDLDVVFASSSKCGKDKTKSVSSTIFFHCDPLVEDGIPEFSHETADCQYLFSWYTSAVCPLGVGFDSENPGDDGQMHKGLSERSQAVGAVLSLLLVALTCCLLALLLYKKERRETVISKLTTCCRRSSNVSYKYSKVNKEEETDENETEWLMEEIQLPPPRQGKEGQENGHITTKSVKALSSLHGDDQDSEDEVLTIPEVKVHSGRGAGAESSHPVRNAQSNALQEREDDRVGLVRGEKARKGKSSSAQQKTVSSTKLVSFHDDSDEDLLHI

[2] = biological target: cation-independent mannose-6-phosphate receptor (CI-M6PR) on cells overexpressing CI-M6PR; assay: cellular uptake assay on cells overexpressing CI-M6PR, intracellular I2S enzyme activity read-out

| Kd [1] | Kd [2] | Substance |
| --- | --- | --- |
| 178 nM | – | Naglu-LIF fusion protein (produced in HT-1080 cells) (enzyme) |
| 15 nM | – | Naglu-LIF fusion protein produced in HT-1080 cells overexpressing GNPT (enzyme) |
| – | 1.65 nM | recombinant iduronate 2-sulfatase (I2S) produced in HT-1080 cells co-overexpressing GNPT (from UniProt P22304 26-550) (enzyme) |
| – | 27.9 nM | recombinant iduronate 2-sulfatase (I2S) produced in HT-1080 cells overexpressing I2S alone (from UniProt P22304 26-550) (enzyme) |
